From the supplement of paper PMC10126150
± gives the standard deviation of the averaged measurements.

System: ATP
Assay: switch fluorescence ratio, 500 uM ATP over buffer (Cy3 cluster intensity, sum of 5 cycles each) (fold (ratio)); higher = stronger signal-on switching upon ATP binding; sequences stand for … in TCGTCGGCAGCGTCAGATGTGTATAAGAGACAGTTTTTTTTTTTTTTTTTTTTTTTTT…TC
Conditions: aptamer strand: ATP DNA aptamer (quencher-CACCTGGGGGAGTATTGCGGAGGAAGG + anchor), 100 nM annealed; ATP concentration: 500 uM
Procedure, shortened: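 Exposure to 500 uM ATP lasted 15 min at 22 °C before imaging, and a selection-buffer image was taken beforehand, for Cy3-labelled switching-strand clusters on a modified Illumina MiSeq flow-cell annealed to 100 nM quencher-labelled ATP aptamer. Five buffer/ATP cycles were run with NaOH stripping and re-annealing between them. The fluorescence ratio per cluster is summed target-cycle over summed buffer-cycle Cy3 intensity, averaged per switch-domain sequence. Clusters outside 100-1000 RFU were excluded.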

Sequence | switch fluorescence ratio
CAGGGCCTGT | 1.01 ± 0.028
CAGGGGAGGT | 1.02 ± 0.014
CAGGGGATGT | 0.985 ± 0.013
CAGGGGATTA | 1 ± 0.045
CAGGGGCAGC | 0.927 ± 0.05
CAGGGGCGCA | 1 ± 0.075
CAGGGGCTCG | 1.01 ± 0.036
CAGGGGGGTA | 1.01 ± 0.016
CAGGGGGGTT | 1.09 ± 0.21
CAGGGGTATC | 1.01 ± 0.033
CAGGGGTATT | 1.32 ± 0.42
CAGGGGTCTA | 0.9957 ± 0.004
CAGGGGTTA | 1.03 ± 0.044
CAGGGGTTGA | 0.987 ± 0.035
CAGGGGTTGC | 1.01 ± 0.013
CAGGGTATTT | 0.981 ± 0.032
CAGGGTGATG | 0.985 ± 0.024
CAGGGTGGAC | 1.04 ± 0.04
CAGGGTTGGT | 0.977 ± 0.033
CAGGGTTTCG | 1.02 ± 0.078
CAGGTAAATG | 0.9961 ± 0.0027
CAGGTCTTTC | 1.02 ± 0.021
CAGGTGAGTG | 1.251 ± 0.0088
CAGGTGCGGG | 1.1694 ± 0.0009
CAGGTGCTGG | 1.167 ± 0.0018

Sequence | switch fluorescence ratio
CAGGTGGAGA | 1.0094 ± 0.00078
CAGGTGTGGC | 1.11 ± 0.013
CAGGTGTTTG | 1.39 ± 0.055
CAGGTTACGC | 1.01 ± 0.027
CAGGTTGGGT | 1.001 ± 0.0086
CAGGTTGTGC | 0.98 ± 0.055
CAGGTTTAGT | 0.9682 ± 0.0043
CAGTAACTGT | 1.02 ± 0.027
CAGTACTCTG | 0.986 ± 0.031
CAGTAGAATT | 1.02 ± 0.023
CAGTAGTGTC | 0.985 ± 0.041
CAGTCAGCGG | 1.01 ± 0.02
CAGTCATGGG | 1 ± 0.035
CAGTCATTCG | 0.99 ± 0.016
CAGTCCGGCA | 1.05 ± 0.021
CAGTCCGGTC | 1.06 ± 0.014
CAGTGAGGGT | 0.981 ± 0.019
CAGTGCACTC | 0.9918 ± 0.0014
CAGTGCGTGG | 0.988 ± 0.017
CAGTGCGTGT | 1 ± 0.03
CAGTGGCCTA | 0.99094 ± 0.00045
CAGTGGGAGA | 1.025 ± 0.0088
CAGTGGGGCA | 1.03 ± 0.053
CAGTGGGGGC | 1.05 ± 0.087
CAGTGGTCGT | 0.999 ± 0.011

Sequence | switch fluorescence ratio
CAGTGTGGTG | 1 ± 0.049
CAGTTAAAGG | 1.01 ± 0.017
CAGTTACACG | 0.995 ± 0.023
CAGTTAGGGG | 1.02 ± 0.013
CAGTTCATGA | 1.01 ± 0.027
CAGTTCTCGT | 0.969 ± 0.018
CAGTTGATGC | 1.01 ± 0.096
CAGTTGCTGA | 0.999 ± 0.011
CAGTTGGGGT | 0.997 ± 0.022
CAGTTGTAAA | 0.9699 ± 0.0067
CAGTTGTTGG | 0.984 ± 0.011
CAGTTTTATC | 1.012 ± 0.0039
CAGTTTTCGG | 1 ± 0.021
CAGTTTTGAG | 0.9917 ± 0.0014
CATAAAAGAT | 1.01 ± 0.017
CATAAAGATG | 1.053 ± 0.01
CATAACCGGT | 1.01 ± 0.027
CATAATAC | 1.82 ± 0.4
CATAATTTTT | 0.991 ± 0.062
CATACAATTG | 1.06 ± 0.091
CATACACAGG | 1.26 ± 0.078
CATACATCCG | 1.07 ± 0.038
CATAGACGGG | 1.03 ± 0.081
CATAGATAGG | 0.992 ± 0.011
CATAGGATCG | 0.949 ± 0.038

Sequence | switch fluorescence ratio
CATAGTGTTT | 1.01 ± 0.012
CATAGTTTGG | 1.07 ± 0.034
CATATAATTC | 0.975 ± 0.042
CATATAGGGC | 0.985 ± 0.02
CATATATCGG | 1.02 ± 0.012
CATATATTGG | 1.02 ± 0.05
CATATCACAT | 1.024 ± 0.0062
CATATCGAAA | 1.013 ± 0.0033
CATATGGGGG | 1.02 ± 0.046
CATATGTTTT | 1 ± 0.035
CATATTATCA | 1.02 ± 0.024
CATATTCAAT | 1 ± 0.015
CATATTTGCC | 1.03 ± 0.059
CATCAAGGCA | 1.01 ± 0.019
CATCAATCTC | 1.12 ± 0.02
CATCAGGAGG | 0.961 ± 0.035
CATCATGTTT | 0.984 ± 0.015
CATCATTGGC | 0.974 ± 0.092
CATCCGGCCG | 1.194 ± 0.0019
CATCCGGGGG | 1.56 ± 0.73
CATCGGAGGG | 1.02 ± 0.029
CATCGGCTGA | 0.992 ± 0.023
CATCGGTCTT | 0.958 ± 0.039
CATCGTAAAT | 1.06 ± 0.016
CATCGTGTTA | 1.01 ± 0.022
